This note sets out measurements from the nanobody polyreactivity screen of Harvey et al. (2022).

The data set is described as follows: yeast display, Sf9 membrane polyspecificity reagent, FACS + sequencing; frameworks hold sequencing errors. In a few lines:
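After 36–48 hours of galactose induction, yeast (Saccharomyces cerevisiae BJ5465) displaying a synthetic nanobody library were stained at 4 °C for 1 hour with 10% biotinylated, detergent-solubilized Sf9 membrane reagent. Streptavidin microbeads enriched the stained cells before FACS sorting into low and high (top ~1%) gates on anti-HA and streptavidin fluorescence. Each clone's polyreactivity label reflects its gate of origin.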
On to “QVQHVESGGGIVQAGGSLRLSCAASGSIFDRNAMGWYRPAPGQERELVASISWDGGNTYYADSVKGRFTISRDNSTNTVYLQMNSLKPEDTAVYYCAVDLYIWYDGYEYYYWGQGTQVTVSS”, for which the “polyreactivity (PSR sort gate)” value is reported as “high polyreactivity”.
“QVQHVESGGGLDQAGGSLPLSCASSGSTFAYYAMGWYRQAPGKERELVASITWSGGITYYADSVKGRFTISRDNAKNTVYLQMNSLKPEETAVYYCNVVPYYGYYYWGQGSQVTVSS”: the “polyreactivity (PSR sort gate)” value is “low polyreactivity”.
For the sequence “QVQHVESGGGLFQAGGSLRLSCAASGTTFRYYAMGWYRQAPVKERELVAYITTSGGTYYADSVKGRFTISRDNAKNTVYLQMNSLKPEDTAVDYCAARRQDYTYYRIYNFDYWGQGTQVTVSS”, the “polyreactivity (PSR sort gate)” value is “high polyreactivity”.
In the case of “QVQHVESGGGLGQAGGSLRLSCAASGSTFRSYAMGWYRQAPGKERELVAVISSGDSTYYADSLKGSFKISRDNAKNTVYLQMNSLKPDDTAVYYCAADSYFLVRWYGYWGQGTQVTVSS” it was “low polyreactivity”; in that of “QVQHVESGGGLGQAVGSLRLSCAASGFTFARNAMGWDRQAPGQERELVAAISSSGAGTYYADSVKGRFTISRDNSKNTVYLQMNSLKPEDTAVYYCAAYSWKGYDYWGQGTQVTVSS”, “high polyreactivity”; in that of “QVQHVESGGGLLQAGGSLRLSCPASGRTFTVYALGWYRQAPGKDRELVAAFSRSGGRTYYADSVKGRFTISRDNAKNTVYLQRNSLKPEDTAVYYCAADDPYRTNDFDYWGQGTQVTVSS”, “high polyreactivity”.
Regarding “QVQHVESGGGLVQAGCSLRLSCAASGRIFRLYAMGWYRQARGKERELVAAISSRGGDTYADSVKGRFTISRDNAKNTVYLQMNSLKPEDTAVYYCNAVIYYPYKYGVWYYEYDYWGQGTQVTVSS”, the “polyreactivity (PSR sort gate)” value is given as “low polyreactivity”.
The same measure for “QVQHVESGGGLVQAGGCLRVSCAASGRTFIYYAMGGYRPAPGKERELVAAITNRGGSTYYADSVKGRFTISRDNAQNTVYLLMNSLNPEDTAVYYCAARGKYPSASAYTYSYGYWGQGTQVTVSS”: “high polyreactivity”; for “QVQHVESGGGLVQAGGRLRLRCAASGSIFGTYAMGWYRQAPGKERELVARISGGGSTYYADSVKGRFTISRDNAKNTVYLQMNSLKPEDTAVYYCNVRKWAYWSHAIIYNYWGQGTQVTVSS”: “high polyreactivity”; for “QVQHVESGGGLVQAGGSHPLSCAASGRIFQYNALGWYRKATGKERELLAAISLSGVRTYYADSVKGRFTISRDNAKNTVYLQMNSLKPEDTAVYYCAAVRFDRARGSPYPDRVGVYSWGQGTQVTVSS”: “high polyreactivity”.
As to “QVQHVESGGGLVQAGGSLPLSCAASGFIFYNYAQRCYTQPPGKERELVAAISSGDDTTYADSVKGRFTISRDNAKNTVYLQMNSLKPDDTAVYYCNTVRSVKQQGPYGYCGQGTQVTVSS”, the “polyreactivity (PSR sort gate)” value is given as “low polyreactivity”.
As for “QVQHVESGGGLVQAGGSLRISCAASGFIFGPYAMGWSRKAPGKERELVAAISGRDGSTYYADSVKGRFTISRDNAKNSVYLHMNSLKPEDTAVYYCAAEVWTALYYSYYGYRYYWGQGTQVTLSS”, the “polyreactivity (PSR sort gate)” value is recorded as “high polyreactivity”.
In the case of “QVQHVESGGGLVQAGGSLRISCAASGSIFYYNAMGWYRQAPGKERELVAAISWGDGITYYADSVKGRFTISRDNAKNTVYLQMNSLKPEDTAVYYCAVDYYYLAYEYWGQGTQVTVSS” it was “high polyreactivity”; in that of “QVQHVESGGGLVQAGGSLRISCAASGSTFPRYGKGRYRQAPGKERELVAAISSGGGRTYYADSVKGRFTISRDNAKNTVYVQMNSLKPEDTAVYYCNKRPSHWRHYIMDYWGQGTQVTVSS”, “high polyreactivity”; in that of “QVQHVESGGGLVQAGGSLRLSCAASAIIFGDYAMGWYRQAPGKETELVAAINLDGTSTYYADSVKGRFTISRDIAKHSVYLQINSLKTEDTAGFYCAAVPDKYCCRVRRYLFEHNYWGQGTQVTVSS”, “low polyreactivity”.
The same measure for “QVQHVESGGGLVQAGGSLRLSCAASGFIFASYAMGWSRQPPGKERELVAAISWRGGSTYYADSVKGRFTISRDNAKNTLYLQMNSLKPVDTAVYYCNAYVYVCTGRGYDTLDYWGQGTQVTVSS”: “low polyreactivity”; for “QVQHVESGGGLVQAGGSLRLSCAASGFIFGRYTMGWYRQAPGKERELVAAISRGGITNYADSVKGRFTISRDNAKNTVYLQMNSLKPEDTAVYYCNAVGVRPGFKGFDYWGQGTQVTVSS”: “high polyreactivity”.
On to “QVQHVESGGGLVQAGGSLRLSCAASGFIFPYYDMGWYRQAPGKEREFVAAITKSGGRTYYADSVKGRFTISRDNAKNPVYLQMNSLKPEDTAVYYCAAEPDTYWYTYDYWGQGTQVTVSS”, for which the “polyreactivity (PSR sort gate)” value was “low polyreactivity”.
The same measure for “QVQHVESGGGLVQAGGSLRLSCAASGFIFWYYAMGWYRKAPGKERELVAAISSRGGSTYYADSVKGRFTISRDNAKNTVYLQLNSLKPEDTAGYYCATPSKALPPHGRAILDYWGQGTQVTVSS”: “high polyreactivity”.
In the case of “QVQHVESGGGLVQAGGSLRLSCAASGFILDTYGMGWYRQAPGKERELVAAISQSDVSTYYADSVKGRFTISRDNAKNTVDLQMNSLKPEDTAVYDCAADRGGLRWFWQVLYDYWGQGTQVTVSS” it was “low polyreactivity”.
In the case of “QVQHVESGGGLVQAGGSLRLSCAASGFILPWYVMGWYRQAPGKERELVAAISGTGGSTYYADSVKGRFTISRDNAKNTVYLQMNSLKPEDTAVYYCAAGAFYAGYYWEFYYWGQGTQVTVSS” it was “high polyreactivity”; in that of “QVQHVESGGGLVQAGGSLRLSCAASGFTFYRYTMGWYRQAPGKERELVAAISRGGRTYYADSVKGRFTISRDNAKNTVYLQMNSLKPEDTAVYYCAARTWIARRGRYNYWGQGTQVTVSS”, “high polyreactivity”.
In the case of “QVQHVESGGGLVQAGGSLRLSCAASGFTSWKYAMGWYRQAPGKERELVAAISQSGGRTYADSVKGRFTISRDNAKNTVYLQMNSLKPEDTAVYYCAARYPRRSQKYQYWGQGTQVTVSS”, the “polyreactivity (PSR sort gate)” value is “high polyreactivity”.
In the case of “QVQHVESGGGLVQAGGSLRLSCAASGFTYRRYAMGWYRQSPGKERELVAAISYRGGTYYADSVKGRFTISRDKAKNTLYLQMTSLIPEDTAVYYCNARYRGKYSSYGYWGQGTQVTVSS” it was “high polyreactivity”; in that of “QVQHVESGGGLVQAGGSLRLSCAASGGIFHGYAMGWYRQAPGKERELVAAISRGGSTNYADSVKGRFTISRDNAKNTVYLQMNSLKPQDTAVYYCAARTRWFKGYDYWGQGTQVTVSS”, “high polyreactivity”.
The same measure for “QVQHVESGGGLVQAGGSLRLSCAASGGTFSYNTMGWSRQAPGKERELVAVITFSGGSTYYADSVKGRFTISRDNAKNTVYLQMNSLKPEDTAVYYCNARSYPRWLRYDYWGQGTQVTVSS”: “low polyreactivity”; for “QVQHVESGGGLVQAGGSLRLSCAASGIIFHSYAMGWYRQAPGKERELVAAISKNVVSTYYADSVKGRFTISRDNAKNTVYLQMNSLKPEDTAVYYCATLKPYRARQRDYWGQGTQVTVSS”: “high polyreactivity”.
In the case of “QVQHVESGGGLVQAGGSLRLSCAASGITFFFNAIGWYRQATGKQRQLVAAITSRGGRTYYADSVKGRFTISRDNAKYTVYLQMNSLKPEDTAVYYCAATKKTGYYRYYYWGQGTQVTVSS” it was “high polyreactivity”.
As to “QVQHVESGGGLVQAGGSLRLSCAASGITFGDNDMGWYRQAPGKERELVASISSGGSTTYADSVKGRFTISRDNAKNTVYLQMNSLKPEDTAVYYCNADYGSSVEYNYWGQGTKVTVSS”, the “polyreactivity (PSR sort gate)” value is “low polyreactivity”.
The same measure for “QVQHVESGGGLVQAGGSLRLSCAASGLIFSWYAKGWYRQAPGKERELDASITIGGNTNYAYSVKGRFTISRDNAKNTVYLQMNSLKPEDTAVYYCDAQTFWYGYGGGDYWGQGTQVTVSS”: “low polyreactivity”; for “QVQHVESGGGLVQAGGSLRLSCAASGLIFTKNAMGWCRQARGKEWELVAAISRGGGTPYYADSVKGRFTISRDHAKNTVYLQMNSLKPEDTAVYYCAAESYLQYPGAGDSWGQGTQVTVSS”: “high polyreactivity”.
The same measure for “QVQHVESGGGLVQAGGSLRLSCAASGLTFAGYTMGWYRQAPGKERELVAAITRGGGRTYYADSVKGRFTISRDNAKNTVYLQMNSLKPEDTAVYYCATVSQYRGYYWGQGTQVTVSS”: “high polyreactivity”; for “QVQHVESGGGLVQAGGSLRLSCAASGRIFDLNAMGWYRQATGKERELVAAISYSGGRTFSADSVKRRFTISRDNAKNTVYLQMNSLKPEDTAVYYCAAVAYLNWTPHYYWGQGTQVTVSS”: “low polyreactivity”.
Regarding “QVQHVESGGGLVQAGGSLRLSCAASGRIFDLYAMGWYRQAPGKERELVAAITSGSTYYADSVKGRFTISRDNAKNTVYLQMNSLKPEDTAVYYCAADLSYWRGGHSRNYWGQGTQVTVSS”, the “polyreactivity (PSR sort gate)” value was “low polyreactivity”.
In the case of “QVQHVESGGGLVQAGGSLRLSCAASGRIFDSYAMGWYRQAPGKERELVATISWDSASTYYADTVKGRFTISRDNAKNTVYLQMNCLNPEDTAVYYCAAGGSSSWAFNYWGQGTQVTVSS” it was “low polyreactivity”.
Turning to “QVQHVESGGGLVQAGGSLRLSCAASGRIFGRNNMGWYRQAPGKERELVAAISSSGGSTRYADSVKGRFTISRDNAKNTVYLQMNSLKPEDTGVYYCAARRAYYYEGGYDYWGQGTQVTVSS”, the “polyreactivity (PSR sort gate)” value is “high polyreactivity”.
In the case of “QVQHVESGGGLVQAGGSLRLSCAASGRIFGSNAMGWYRQPPGKDRELVAAITWSGGSTYYADSVKGRFTISRDNAKNTVYLQMNSLKPEDTAVYDCAAPASRTKGPFPGYDYWGQGTQVTVSS”, the “polyreactivity (PSR sort gate)” value is “high polyreactivity”.
Regarding “QVQHVESGGGLVQAGGSLRLSCAASGRIFGSYAMVGYIQAPGKETELDAAIRWSGGNTYYADSVKGRFTITRDNAKNTVYFQMNSLKPEDTAVYYCNARTARSYSKTSYRFSSYNYWGQGTQVTVSS”, the “polyreactivity (PSR sort gate)” value is on record as “high polyreactivity”.
The same measure for “QVQHVESGGGLVQAGGSLRLSCAASGRIFRFNAMGWYRKAPGKERELVAAISWRSSNTYYADSVKGRFTISRDNAKNSVYLQMNSLKPEDTAVYYCAASTASSKYRYEYWGQGTQVTVSS”: “high polyreactivity”.
The same measure for “QVQHVESGGGLVQAGGSLRLSCAASGRIFSANAMGWYRQAPGKERELVAAISGSGGSTFYADSVKGRFTISRDNAKNTVYLQMNSLKPEDTAVYYCAARRYRSGYYSFYYWGQGTQVTVSS”: “high polyreactivity”.
